B1: TPR 5TU (parent)
chain: GGAUCUUCUCGAUCUAACAAAAAAGACAAAUCUGCCACAAAGCUUGAGAGCAUCUUCGGAUGCAGAGGCGGCAGCCUUCGGUGGCGCGAUAGCGCCAACGUUCUCAACUAUGACACGCAAAACGCGUGCUCCGUUGAAUGGAGUUUAUCAUG

Fewer inactive variants are shown than the library holds. Some results are limits rather than exact numbers.

The variants in this series derive from B1. Put plainly: polymerase ribozyme fitness, log enrichment relative to wild type (log ratio); higher = more active; in vitro selection for triplet polymerase activity. In a few lines: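 Only genotypes with ≥10 input reads and ≥1 read per output were kept after Illumina sequencing of input and output libraries. These libraries were PCR-built, transcribed mutants of each subunit of a heterodimeric triplet polymerase ribozyme, each put through one triplicate in vitro selection round with frozen incubation at −7 °C, gel excision of extended constructs, streptavidin-bead capture and RT-PCR. Fitness is a logarithmic ratio of genotype enrichment to wild-type enrichment, from inverse-variance-weighted replicate averages, with the logarithm in base 2.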
As to GGAUGUUCUCGAUCUAACAAAAAAGACAAAUCUGCAACAAAGCUUGAGAGCAUCUUCAGAUGCAGAGGCGGCGGCCUUCGGUGGUGCGAUAGCGCCAACGUUCUCAACUAUGACACGCAAAACGCGUGCUCCGUUGAAUGGAGUUUAUCAUG [C5G C36A G58A A73G C85U], the “polymerase ribozyme fitness (log ratio)” value is ≤ -4.2. As for GGAUCUUCUCGAUGUAACAUAAAAGACAAAUCUGCCACAAAGCUUGAGAGCAUCAUCGGAUGCAGAGGCGGCAGCCUUCGGUGGAGCGAUAGCGCCAACGUUCUUAACUAUGACACGCAAAACGCGUGCUCCGAUGAAUGGAGUUUAUCAUG [C14G A20U U55A C85A C105U U134A], the “polymerase ribozyme fitness (log ratio)” value is ≤ -4.2. In the case of GGAUCUUCUCGAUCUAACAAAAAAGACAAAUCUGCCACAAAGCUUGAGAGCAUCUUCGGAUGCAGAGGUGGCUGCCUUCGGUGGCGCGAUAGCGCCAACGUUCUCAACUAUGACACGCAAAACGCGUGCUCCGUUGAAUGGAGUUUAUCAUG [C69U A73U], the “polymerase ribozyme fitness (log ratio)” value is -2.64. In the case of GGAUCUUCUCGAUCUAACAAAAAAGACAAAUCUGCCACAAAGCUUGAGAGCAUCUUCGGAUGCAAAGGCGGCAGCCUUCGGUGGCGCGUUAGCUCCAACGUUCUCAACUAUGACACGCAAAACGCGUGCUCCGUUGAAUGGAGUUUAUCAUG [G65A A89U G94U], the “polymerase ribozyme fitness (log ratio)” value is -2.57. Consider GGAUCUUCUCGAUCUAACAAAAAAGACAAAUCUGCCACAAAGCUUGAGAGCUUCUUCGGAUGCAGAGGCGGCAGCCUUCGGUGGCGCGAUAGCACCAACGUUCUCAACUAUGACACGCAAAACGCGUGCUCCUUUGAAUGGAUUUUAUCAUG [A52U G94A G133U G143U], for which the “polymerase ribozyme fitness (log ratio)” value is -3.88. For GGAUCUUCUCGAUCUAAGAAAAAAGUCAAAUCUGUCACAAAGCUUGAGAGCAUCUUCGGAUGCAGAGGCGGCAGCCUACGGUGGCGCGAUAGCGCCAAGGUUCUCAACUAUGACACGCAAAACGCGUGCUCCGUCGAAUGGAGUUUCUCAUG [C18G A26U C35U U78A C99G U135C A147C] the value was ≤ -4.2; for GGAUCUUCUCGAUCUAACAAAAAAGACAAAUCUGCCACAAAGCUUGACAGCAUCUUCGGAUGCAGAGGCGGCAGCCUUCGGUGGCGCGAUAGCGCCAAUGUUCUGAACUAUGACACGCAAAACGCGUGCUCCGUUGAAUGGAGUUUAUCAUG [G48C C99U C105G], ≤ -4.2; for GGAUCUUCUCGAUCUAAGAAAAAAGACUUAUCUGCCACAAAGCUUGAGAGCAUCUUCGGAUGCAGGCGCGGCAGCCUUCGGUGGCGCGAUAGCGCUAACGUUCUCCACUAUGACACGCAAAACGCGUGCUCCGUUGAAUGGAGUUUAUCAUG [C18G A28U A29U A66G G67C C96U A106C], ≤ -4.2. For GGAUCUUCUCGAUCUAAGAAAAAAGACAAAUCUGCCACAAAGCUUGAGAGCAUCUUCGUAUGCAGAGGCGGCAGCCUUCGGUGUCGCGAUAGCGCCAACGUUCUCAACUAUGACACGCAAAACGCGUGCUCCGUUGAAUGGAGUUUAUCAUG [C18G G59U G84U] the value was -2.51; for GGAUCUUCUCGAUCUAACAAAAAAGACAAAUCUGCCACAAAGCUUGAGAGCAUCUUCGGAUGCAGAGGCGGCAGCCUUCGGUGACGCGAUAGCGCCAACGUUCUCAACUAUGUCACGCAAAACGCGUGCUCCGUUGAAUAGAGUUUAUCAUG [G84A A113U G140A], ≤ -4.2. Take GGAUCUUCUCGAUCUAAUGAAAAAGACAAAUCUGCCACAAAGCUUGAGAGCAUCUUCGGAUGCAGAGGCGGCAGCCUUCGGUGGCGCGAUAGCGCCAACGUUCUCAACUAUGACACGCAAAACGCGUGCUCCGUUGAAUGGAGUUUAUCAUG [C18U A19G]: the “polymerase ribozyme fitness (log ratio)” value is -1.03.

As for GGAUCUUCGCGAUCUAACAAAAAAGACAAAUCUGCCACAAAGCUUGAGAGCAUCUUCGCAUGCAGAGGCGGCAGCCUUCGGUGGCGCGAUACCGCCAACGUUCUCAGCUAUGACGCGCAAAACGCGUGCUCCGUUGAAUGGAGUUUAUCAUG [U9G G59C G92C A107G A115G], the “polymerase ribozyme fitness (log ratio)” value was ≤ -4.2. For GGAUCUUCUCAAUCUAACAAAAAAGACAAAUCUCCCACAAAGCUUGAGAGCAUCUAUGGAUGCAGAGGCGGCAGCCUUCGGUGGCGCGAUAGCGCCAAGGUUCUCAACUAUGACACGCAAAACGCGUGCUCCGUUGAAUGGCGUUUAUCAUG [G11A G34C U56A C57U C99G A142C] the value was ≤ -4.2. Regarding GGAUCUUCUCGAUCUAACAAAAAAGACAAAUCUGCCACAAAGCUUGAGAGCAUCUUCGGAUGCAGAGCCGGCAGCCUUCGGUGGCGCGAUAGUGCCAACGUUCUCAACUAUGACACGCAAAACGCGUGCUCCGUUGAAUAGAGUUUGUCAUG [G68C C93U G140A A147G], the “polymerase ribozyme fitness (log ratio)” value is ≤ -4.2.

Take GGAUCUUCUCGAUUUAACAAAAAAGACAAAUCUGCCACAACGCUUGAGAUCCUCUUCGGAUGCAGAGGCGGCAGCCUUCGGUGACGCGAGCGCGCCAACGUUCUCAACUAUGACAUGCAAAACGCGUGCUCCGUUGAAUAGAGUUUAUCAUG [C14U A41C G50U A52C G84A U90G A91C C116U G140A]: the “polymerase ribozyme fitness (log ratio)” value was ≤ -4.2.

In the case of GGAUCUUCUCGAUCUAACAAAAAAGACAAAGCUGCCCCAAAGCUUGAGAGCAUCUUCGGAAGCAGAGGCGGCAGCCUUCGGUGGCGCGAUAGCGCCAACGUUCUCAACUAUGACACGCAAAACGCCUGCUCCGUUGAAUGGAGUCUAUCAUG [U31G A37C U61A G126C U145C], the “polymerase ribozyme fitness (log ratio)” value is ≤ -4.2. For GGAUCUUCUCUAUCUAACAAAAAAGACAAAUCUGCCACAAAGCUUGAGAUCAUCUUCGGAUGCAGAGACGGCAGCCUUCGGUGUCGCGAUAGCGCCAACGUUCUCAACUAUGAUUCGCAAAACGCGUGCUCCGUUAAAUGGAGUUUAUCAUG [G11U G50U G68A G84U C114U A115U G136A], the “polymerase ribozyme fitness (log ratio)” value is ≤ -4.2.

Regarding GGCUCUUCUCGAUCUAACAAAAAAGACAAAGCUGCCACAAAGCUUGAGAGCCUCUACGGAGGCAGAGGCGGCAGCCUUCGGUGGCGCGAUCGCGCCAACGUUCUCAAGUAUGUCACGCAAAACGCGUGCUCCGUUGAAUGGAGUUUAUCAUG [A3C U31G A52C U56A U61G A91C C108G A113U], the “polymerase ribozyme fitness (log ratio)” value is ≤ -4.2. Regarding GGAUCUUCUCGAUCUAACAAAAAAGAUAAAUCUGCCACAAAGCUUGAGAGUAACUUCGGAUGCAGAGGCGGCAGCCUUCGGUGGCGCGAUAGCGCCAACGGUCUCAACUAUGACACGCAAAACGCGUGCUCCGUUGAAUGGAGUUUAUCAUG [C27U C51U U53A U101G], the “polymerase ribozyme fitness (log ratio)” value was -3.98.

(Values after the RNAGym collection of RNA variant scans (doi:10.1073/pnas.2313332121).)
